Earlier results, collected in PMC9852560.

Target: laminin gamma1 (UniProt P02468)
Assay: SEC

UniProt P02468, sequence (P02468 34-1607): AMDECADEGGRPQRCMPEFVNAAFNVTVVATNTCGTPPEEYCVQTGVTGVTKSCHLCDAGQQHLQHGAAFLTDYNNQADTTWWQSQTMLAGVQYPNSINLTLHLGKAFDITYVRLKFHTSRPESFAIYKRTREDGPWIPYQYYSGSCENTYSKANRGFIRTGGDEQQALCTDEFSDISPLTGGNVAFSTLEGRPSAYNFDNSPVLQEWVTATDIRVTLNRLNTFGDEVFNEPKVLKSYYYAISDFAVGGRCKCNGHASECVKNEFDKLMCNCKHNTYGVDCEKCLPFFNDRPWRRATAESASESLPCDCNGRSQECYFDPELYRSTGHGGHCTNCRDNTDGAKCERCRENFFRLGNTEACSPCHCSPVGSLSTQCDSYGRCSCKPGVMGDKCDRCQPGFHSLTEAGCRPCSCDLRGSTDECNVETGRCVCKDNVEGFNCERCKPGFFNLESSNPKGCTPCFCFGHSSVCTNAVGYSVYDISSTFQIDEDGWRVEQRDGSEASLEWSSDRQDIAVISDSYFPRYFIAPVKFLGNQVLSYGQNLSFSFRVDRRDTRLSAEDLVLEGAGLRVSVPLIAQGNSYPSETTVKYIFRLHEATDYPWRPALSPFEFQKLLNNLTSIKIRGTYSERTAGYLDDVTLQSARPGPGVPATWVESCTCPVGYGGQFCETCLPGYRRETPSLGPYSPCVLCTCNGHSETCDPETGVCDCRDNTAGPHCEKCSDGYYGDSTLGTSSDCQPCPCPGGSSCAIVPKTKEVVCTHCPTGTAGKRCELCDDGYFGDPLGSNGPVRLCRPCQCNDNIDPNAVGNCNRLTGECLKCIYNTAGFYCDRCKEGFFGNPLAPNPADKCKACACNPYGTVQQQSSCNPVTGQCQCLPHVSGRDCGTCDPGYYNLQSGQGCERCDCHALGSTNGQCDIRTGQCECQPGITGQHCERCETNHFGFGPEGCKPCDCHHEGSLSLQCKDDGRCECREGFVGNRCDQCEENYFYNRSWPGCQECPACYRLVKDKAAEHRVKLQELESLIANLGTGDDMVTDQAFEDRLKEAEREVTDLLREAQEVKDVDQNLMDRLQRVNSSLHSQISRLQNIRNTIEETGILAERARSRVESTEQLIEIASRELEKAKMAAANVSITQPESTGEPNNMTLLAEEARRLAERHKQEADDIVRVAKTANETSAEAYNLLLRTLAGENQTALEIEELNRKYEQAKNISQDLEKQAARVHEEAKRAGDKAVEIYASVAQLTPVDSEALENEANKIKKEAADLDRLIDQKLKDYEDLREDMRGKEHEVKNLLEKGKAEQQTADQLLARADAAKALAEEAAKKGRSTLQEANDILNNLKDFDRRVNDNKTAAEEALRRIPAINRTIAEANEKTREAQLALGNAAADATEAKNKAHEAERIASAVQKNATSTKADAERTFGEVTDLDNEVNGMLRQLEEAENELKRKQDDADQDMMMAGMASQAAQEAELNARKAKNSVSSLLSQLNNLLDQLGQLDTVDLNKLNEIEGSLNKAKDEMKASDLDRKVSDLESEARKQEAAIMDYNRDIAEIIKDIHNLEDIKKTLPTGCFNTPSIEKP

Kd: 21 µM
Substance: laminin beta1 (from UniProt P02469)
